Assay results as given in US20140227292A1 (PROTHENA BIOSCIENCES, published 2014).

Experiments:
[1] = biological target: T1, human MCAM (melanoma cell adhesion molecule), expressed on transfected CHO cells (human, UniProt P43121 24-646); test: blocking assay of the re-expressed antibodies (Table 7 'Blocking IC50'; laminin/FACS assay of paragraph 438): % inhibition of laminin 411 binding to hMCAM-expressing CHO cells
T1 construct: also called hMCAM; CD146
T1 chain: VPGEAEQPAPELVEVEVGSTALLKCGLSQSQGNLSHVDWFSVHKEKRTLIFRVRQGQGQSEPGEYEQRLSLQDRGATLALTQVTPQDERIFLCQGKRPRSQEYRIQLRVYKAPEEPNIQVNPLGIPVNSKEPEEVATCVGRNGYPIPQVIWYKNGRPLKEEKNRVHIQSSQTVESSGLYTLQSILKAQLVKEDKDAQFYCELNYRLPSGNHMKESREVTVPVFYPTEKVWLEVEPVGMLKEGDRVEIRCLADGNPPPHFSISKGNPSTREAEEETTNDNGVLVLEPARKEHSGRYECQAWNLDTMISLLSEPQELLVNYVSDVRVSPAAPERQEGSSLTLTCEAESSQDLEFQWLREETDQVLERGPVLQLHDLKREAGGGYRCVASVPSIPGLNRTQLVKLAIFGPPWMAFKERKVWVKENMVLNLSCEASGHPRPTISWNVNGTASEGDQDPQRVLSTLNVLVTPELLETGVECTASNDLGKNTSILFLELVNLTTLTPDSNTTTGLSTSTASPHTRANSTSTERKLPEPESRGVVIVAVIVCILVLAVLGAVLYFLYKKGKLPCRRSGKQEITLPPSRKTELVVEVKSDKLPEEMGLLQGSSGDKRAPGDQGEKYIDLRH
Method: Following incubation for 30-45 minutes, the cells were washed and anti-laminin conjugated to AF650 (NovusBio) was added to detect the bound laminin. The cells were run on a flow cytometer to measure the laminin binding signal.

[2] = biological target: recombinant human laminin 411 (Biolamina) (human, UniProt Q16363 25-1823; P07942 22-1786; P11047 34-1609); test: SPR, Biacore T200, steady state, Fc-tagged MCAM IgG1-2A captured by anti-Fc, laminin as analyte

B1: chimeric 1749 (antibody, V domains shown)
VH: DVKLVESGGDLVKPGGSLKLSCAASGFTFSSYIMSWVRQTPEKRLEWVATISSGGSSTYYPDSVKGRFTISRDNAKNTLYLQMSSLKSEDTAMYYCTRDDDYDVKVFAYWGQGTLVTVSA
VL: DIVMSQSPSSLAVSAGEKVTMNCKSSRSLLNSRIRKNYLAWYQQKPGQSPKLLIYWASTRESGVPDRFTGSGSGTDFTLTISSVQAEDLAVYYCKQSYNLLTFGAGTKLELK
[1]
  IC50 (read off the curve): ~0.4 µg/mL

B2: chimeric 2107 (antibody, V domains shown)
VH: QVQLKESGPGLVQSSQTLSLTCTVSGFSLTSNGVSWVRQPPGKGLEWIAAISSGGSTYYNSAFKSRLSISRNTSKSQVLLKMNSLQTEDTGMYFCARHRPFYFDYWGQGVMVTVSS
VL: DIQVTQSPSLLSASVGDRVTLNCKGSQNIYKSLAWFRLKRGEAPKLLIYDANSLQTGIPSRFSGSGSGTDFTLTITSLQPEDVATYFCQQYYSGYTFGAGTKLELK
[1]
  IC50 (read off the curve): ~0.5 µg/mL

B3: h2107_VH2 + h2107_VL2 (antibody, V domains shown)
VH: QVTLKESGPVLVKPTETLTLTCTVSGFSLTSNGVSWVRQPPGKALEWIAAISSGGSTYYNSAFKSRLSISRDTSKSQVVLTMTNMDPVDTATYYCARHRPFYFDYWGQGTLVTVSS
VL: DIQMTQSPSSLSASVGDRVTITCKGSQNIYKSLAWFQLKPGKVPKLLIYDANSLQTGIPSRFSGSGSGTDFTLTISSLQPEDVATYYCQQYYSGYTFGGGTKVEIK
notes: also called h2107VH2VL2; VH2VL2
[1]
  IC50 (read off the curve): ~0.8 µg/mL

B4: Recombinant human Fc-tagged MCAM IgG1-2A (human MCAM domains 1 and 2, amino acids 19-242) (Fc fusion)
chain: PRVAGVPGEAEQPAPELVEVEVGSTALLKCGLSQSQGNLSHVDWFSVHKEKRTLIFRVRQGQGQSEPGEYEQRLSLQDRGATLALTQVTPQDERIFLCQGKRPRSQEYRIQLRVYKAPEEPNIQVNPLGIPVNSKEPEEVATCVGRNGYPIPQVIWYKNGRPLKEEKNRVHIQSSQTVESSGLYTLQSILKAQLVKEDKDAQFYCELNYRLPSGNHMKESREVT
notes: also called human MCAM IgG1-2A; MCAM Fc domains 1 and 2; not shown: human Fc tag
[2]
  Kd: 66 nM
